Reference: the supplement of paper PMC10065799, “High-throughput profiling of sequence recognition by tyrosine kinases and SH2 domains using bacterial peptide display” (eLife, 2023)

Assays:
[1] = molecular target: c-Src SH2; experiment: SH2 binding enrichment of the phosphorylated peptide, bacterial display (enrichment ratio); higher = better substrate or ligand; peptides without Tyr show the background
[2] = molecular target: SHP2-C SH2; experiment: as above
[3] = molecular target: Grb2 SH2 (UniProt P62993); experiment: as above
Sequence of Grb2 SH2 (P62993 whole entry, looked up): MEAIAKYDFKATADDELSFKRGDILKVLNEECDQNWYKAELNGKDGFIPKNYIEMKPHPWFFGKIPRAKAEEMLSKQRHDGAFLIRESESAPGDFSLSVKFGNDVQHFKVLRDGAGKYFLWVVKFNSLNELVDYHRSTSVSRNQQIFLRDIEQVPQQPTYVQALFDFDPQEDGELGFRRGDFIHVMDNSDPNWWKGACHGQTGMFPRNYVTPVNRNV

[4] = molecular target: FGFR1 (UniProt P11362); experiment: phosphorylation enrichment, bacterial display (enrichment ratio); higher = better substrate or ligand; peptides without Tyr show the background
Sequence of FGFR1 (P11362 whole entry, looked up): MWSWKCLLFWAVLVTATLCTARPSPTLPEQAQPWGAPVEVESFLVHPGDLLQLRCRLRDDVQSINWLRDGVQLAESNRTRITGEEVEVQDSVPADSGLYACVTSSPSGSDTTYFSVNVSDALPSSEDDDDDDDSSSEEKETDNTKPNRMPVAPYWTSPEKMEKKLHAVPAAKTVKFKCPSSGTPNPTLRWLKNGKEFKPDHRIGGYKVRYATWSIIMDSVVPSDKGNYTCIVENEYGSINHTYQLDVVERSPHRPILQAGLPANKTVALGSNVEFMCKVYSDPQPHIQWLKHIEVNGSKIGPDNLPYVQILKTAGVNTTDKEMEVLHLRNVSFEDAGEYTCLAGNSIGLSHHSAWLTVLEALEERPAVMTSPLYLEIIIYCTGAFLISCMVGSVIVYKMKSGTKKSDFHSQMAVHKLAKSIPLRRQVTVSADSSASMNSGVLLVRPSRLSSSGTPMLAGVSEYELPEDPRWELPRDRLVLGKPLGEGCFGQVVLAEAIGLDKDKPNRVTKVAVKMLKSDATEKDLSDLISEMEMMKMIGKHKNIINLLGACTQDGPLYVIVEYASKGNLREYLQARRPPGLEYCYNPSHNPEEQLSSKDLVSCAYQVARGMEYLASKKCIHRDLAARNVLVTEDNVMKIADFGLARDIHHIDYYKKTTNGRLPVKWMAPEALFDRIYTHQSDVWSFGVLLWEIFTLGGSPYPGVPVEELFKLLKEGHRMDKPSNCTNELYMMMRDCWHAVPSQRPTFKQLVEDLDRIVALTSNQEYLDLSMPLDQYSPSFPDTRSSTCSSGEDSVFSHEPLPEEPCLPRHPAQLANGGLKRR

[5] = molecular target: Fyn (UniProt P06241); experiment: as above
[6] = molecular target: MERTK (UniProt Q12866); experiment: as above
Sequence of MERTK (Q12866 whole entry, looked up): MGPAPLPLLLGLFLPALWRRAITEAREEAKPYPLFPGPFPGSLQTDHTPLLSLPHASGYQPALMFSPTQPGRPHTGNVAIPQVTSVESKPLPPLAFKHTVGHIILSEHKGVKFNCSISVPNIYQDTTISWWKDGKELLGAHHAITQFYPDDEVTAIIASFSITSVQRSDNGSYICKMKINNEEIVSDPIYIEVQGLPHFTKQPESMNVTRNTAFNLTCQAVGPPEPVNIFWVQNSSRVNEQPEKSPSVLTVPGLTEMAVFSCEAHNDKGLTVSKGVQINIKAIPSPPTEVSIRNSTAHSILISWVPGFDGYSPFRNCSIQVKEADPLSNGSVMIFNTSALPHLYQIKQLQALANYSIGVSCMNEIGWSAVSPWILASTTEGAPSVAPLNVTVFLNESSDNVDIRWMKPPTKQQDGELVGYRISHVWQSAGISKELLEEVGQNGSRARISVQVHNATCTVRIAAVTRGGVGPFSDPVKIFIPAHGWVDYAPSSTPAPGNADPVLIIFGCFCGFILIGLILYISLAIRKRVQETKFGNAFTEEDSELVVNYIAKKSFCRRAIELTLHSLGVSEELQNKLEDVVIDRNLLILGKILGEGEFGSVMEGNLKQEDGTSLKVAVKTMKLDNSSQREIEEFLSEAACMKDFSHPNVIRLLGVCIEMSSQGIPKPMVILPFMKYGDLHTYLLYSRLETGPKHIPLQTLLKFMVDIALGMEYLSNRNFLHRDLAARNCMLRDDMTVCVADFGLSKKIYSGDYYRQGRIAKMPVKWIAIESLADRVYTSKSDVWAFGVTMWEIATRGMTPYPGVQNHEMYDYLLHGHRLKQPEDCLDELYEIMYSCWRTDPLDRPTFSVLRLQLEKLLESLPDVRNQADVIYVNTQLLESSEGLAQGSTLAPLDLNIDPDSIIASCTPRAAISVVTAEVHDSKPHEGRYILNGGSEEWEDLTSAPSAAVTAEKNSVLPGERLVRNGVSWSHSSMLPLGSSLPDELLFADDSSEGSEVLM

[7] = test system: c-Src; experiment: as above
[8] = molecular target: Jak2 (UniProt O60674); experiment: as above
[9] = molecular target: EPHB2 (UniProt P29323); experiment: as above
Sequence of EPHB2 (P29323 whole entry, looked up): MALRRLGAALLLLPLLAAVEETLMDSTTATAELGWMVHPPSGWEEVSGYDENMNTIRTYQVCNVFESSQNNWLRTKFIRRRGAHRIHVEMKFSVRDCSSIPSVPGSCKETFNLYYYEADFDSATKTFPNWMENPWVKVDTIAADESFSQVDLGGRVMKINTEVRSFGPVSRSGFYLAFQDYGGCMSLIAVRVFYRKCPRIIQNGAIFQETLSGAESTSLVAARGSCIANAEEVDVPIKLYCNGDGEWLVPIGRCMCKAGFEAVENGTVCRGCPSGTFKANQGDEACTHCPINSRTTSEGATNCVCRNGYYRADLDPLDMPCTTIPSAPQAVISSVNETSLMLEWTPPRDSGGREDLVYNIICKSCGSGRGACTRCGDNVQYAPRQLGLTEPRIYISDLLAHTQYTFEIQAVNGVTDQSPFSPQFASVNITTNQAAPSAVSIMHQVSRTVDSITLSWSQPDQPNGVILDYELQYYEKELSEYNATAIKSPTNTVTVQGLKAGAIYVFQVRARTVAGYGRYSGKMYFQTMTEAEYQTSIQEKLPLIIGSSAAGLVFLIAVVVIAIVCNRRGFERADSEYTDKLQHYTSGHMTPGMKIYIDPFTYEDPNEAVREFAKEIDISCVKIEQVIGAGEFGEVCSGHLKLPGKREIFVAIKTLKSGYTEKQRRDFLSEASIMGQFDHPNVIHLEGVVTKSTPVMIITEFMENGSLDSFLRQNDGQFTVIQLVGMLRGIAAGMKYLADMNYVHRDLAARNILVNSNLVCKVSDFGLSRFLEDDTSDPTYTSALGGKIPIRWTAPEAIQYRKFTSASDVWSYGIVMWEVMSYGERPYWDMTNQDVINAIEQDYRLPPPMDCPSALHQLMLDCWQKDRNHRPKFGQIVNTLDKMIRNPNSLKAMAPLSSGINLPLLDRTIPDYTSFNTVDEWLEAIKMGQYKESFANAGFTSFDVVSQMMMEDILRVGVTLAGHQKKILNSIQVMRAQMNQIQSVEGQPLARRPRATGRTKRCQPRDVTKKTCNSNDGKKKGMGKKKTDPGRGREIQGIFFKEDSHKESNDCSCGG

[10] = test system: AncSZ; experiment: as above
[11] = molecular target: EPHB1 (UniProt P54762); experiment: as above
Sequence of EPHB1 (P54762 whole entry, looked up): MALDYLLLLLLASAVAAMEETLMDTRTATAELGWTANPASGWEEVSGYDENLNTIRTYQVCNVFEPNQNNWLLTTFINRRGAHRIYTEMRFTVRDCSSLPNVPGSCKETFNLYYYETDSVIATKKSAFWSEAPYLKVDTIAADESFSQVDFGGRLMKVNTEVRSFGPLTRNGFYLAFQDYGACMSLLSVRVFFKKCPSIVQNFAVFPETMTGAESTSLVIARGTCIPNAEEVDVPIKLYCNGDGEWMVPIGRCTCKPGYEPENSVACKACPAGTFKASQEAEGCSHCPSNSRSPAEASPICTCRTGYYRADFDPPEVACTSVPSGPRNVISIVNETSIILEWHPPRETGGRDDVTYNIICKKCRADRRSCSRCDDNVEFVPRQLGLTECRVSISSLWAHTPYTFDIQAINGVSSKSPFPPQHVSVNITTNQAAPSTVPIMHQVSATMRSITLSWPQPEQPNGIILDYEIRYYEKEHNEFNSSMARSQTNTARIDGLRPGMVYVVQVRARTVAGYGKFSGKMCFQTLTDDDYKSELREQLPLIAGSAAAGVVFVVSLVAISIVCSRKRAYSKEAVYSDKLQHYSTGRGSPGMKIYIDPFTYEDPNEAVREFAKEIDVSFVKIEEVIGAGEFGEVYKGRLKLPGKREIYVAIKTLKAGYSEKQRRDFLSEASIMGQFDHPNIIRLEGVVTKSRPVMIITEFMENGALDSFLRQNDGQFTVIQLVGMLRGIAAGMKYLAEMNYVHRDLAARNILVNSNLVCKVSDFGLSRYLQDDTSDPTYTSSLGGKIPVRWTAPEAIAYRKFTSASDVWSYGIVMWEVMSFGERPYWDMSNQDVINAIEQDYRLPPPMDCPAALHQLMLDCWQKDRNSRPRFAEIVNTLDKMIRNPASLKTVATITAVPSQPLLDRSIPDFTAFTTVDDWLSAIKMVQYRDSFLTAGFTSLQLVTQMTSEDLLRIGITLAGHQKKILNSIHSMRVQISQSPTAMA

[12] = test system: Fer (mouse); experiment: as above
[13] = molecular target: FGFR3 (UniProt P22607); experiment: as above
Sequence of FGFR3 (P22607 whole entry, looked up): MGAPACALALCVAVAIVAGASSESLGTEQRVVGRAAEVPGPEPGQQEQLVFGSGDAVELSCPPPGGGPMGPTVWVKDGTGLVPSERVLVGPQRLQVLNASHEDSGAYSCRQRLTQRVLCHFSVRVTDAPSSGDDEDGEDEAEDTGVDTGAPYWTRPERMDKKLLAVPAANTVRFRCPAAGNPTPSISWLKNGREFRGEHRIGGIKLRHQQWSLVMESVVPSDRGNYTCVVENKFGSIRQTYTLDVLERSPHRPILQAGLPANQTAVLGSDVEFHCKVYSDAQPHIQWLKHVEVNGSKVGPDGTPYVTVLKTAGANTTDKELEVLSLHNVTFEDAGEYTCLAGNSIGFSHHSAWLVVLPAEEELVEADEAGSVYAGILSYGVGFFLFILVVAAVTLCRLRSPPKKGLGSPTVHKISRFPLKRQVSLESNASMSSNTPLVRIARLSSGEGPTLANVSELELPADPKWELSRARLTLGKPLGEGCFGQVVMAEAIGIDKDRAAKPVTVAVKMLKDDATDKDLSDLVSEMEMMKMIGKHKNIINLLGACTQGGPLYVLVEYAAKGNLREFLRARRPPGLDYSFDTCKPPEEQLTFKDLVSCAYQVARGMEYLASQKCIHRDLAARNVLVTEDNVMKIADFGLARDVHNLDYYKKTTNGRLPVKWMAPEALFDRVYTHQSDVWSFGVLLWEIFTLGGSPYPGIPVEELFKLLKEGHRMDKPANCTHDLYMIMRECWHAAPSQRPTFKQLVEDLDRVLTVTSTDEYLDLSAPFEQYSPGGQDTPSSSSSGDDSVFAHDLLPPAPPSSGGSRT

[14] = molecular target: Fes (UniProt P07332); experiment: as above
[15] = molecular target: Hck (UniProt P08631); experiment: as above
[16] = test system: c-Abl (mouse); experiment: as above
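Wherever SH2 binding enrichment of the phosphorylated peptide, bacterial display is given: peptide library displayed on the E. coli surface as eCPX fusions, selected cells deep-sequenced, score is each peptide's frequency after selection divided by its frequency in the input.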
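Wherever phosphorylation enrichment, bacterial display is given: 11-residue human phosphosite peptides and single-mutation variants displayed on the E. coli surface, counted by deep sequencing, each peptide's frequency after selection divided by its frequency in the unselected input library; frequency after pTyr selection over input frequency; kinase dosed for 20-30% of maximal phosphorylation in three min.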

Sequence	SH2 binding enrichment [1]	SH2 binding enrichment [2]	SH2 binding enrichment [3]	phosphorylation enrichment [4]	phosphorylation enrichment [5]	phosphorylation enrichment [6]	phosphorylation enrichment [7]	phosphorylation enrichment [8]	phosphorylation enrichment [9]	phosphorylation enrichment [10]	phosphorylation enrichment [11]	phosphorylation enrichment [12]	phosphorylation enrichment [13]	phosphorylation enrichment [14]	phosphorylation enrichment [15]	phosphorylation enrichment [16]
ATAKGYEPDAS [OTC_Y223_P220A]	0.494	0.598	0.836	0.481	0.441	0.416	0.461	0.684	0.523	0.883	0.523	0.473	0.549	0.784	0.483	0.598
KDGSGYISAAE [CALM1_Y100_N98S]	0.465	0.816	0.715	0.456	0.476	0.464	0.4	0.6	0.409	0.648	0.388	0.369	0.496	0.82	0.444	0.544
KVDKEYEVRVR [GHR_Y226]	0.589	1.06	1.05	0.52	0.407	0.361	0.41	0.587	0.547	0.711	0.459	0.396	0.473	0.864	0.488	0.579
RNDLDYMDSRR [GAA_Y407_W402R]	0.422	0.552	0.971	0.512	0.455	0.528	0.555	0.798	0.408	0.809	0.426	0.341	0.645	0.81	0.509	0.779
ILGTYYETGSI [PAX2_Y73_R71T]	1.4	0.559	0.998	9.71	4.14	3.6	4.01	1.28	2.19	0.971	2.54	0.645	8.15	1.04	2.99	1.16
DHCNQYEQQKM [CHD7_Y75_Y72C]	0.825	0.879	0.971	0.424	0.534	0.443	0.541	0.699	0.714	0.842	0.545	0.499	0.682	0.823	0.499	0.661
ALKWGYTVKGI [OAT_Y158_R154L]	0.625	0.845	0.872	0.426	0.519	0.304	0.31	1.01	0.547	1.13	0.447	0.445	0.72	1.24	0.341	0.659
MSRFIYSTDFF [NTRK1_Y676_D674Y_YF]	0.806	1.05	1.14	1.47	4.15	8.57	4.05	1.04	2.11	0.887	2.29	0.887	1.27	1.31	2.49	0.664
ASYGPYTRVQS [FOXL2_Y258]	2.89	6.64	0.86	0.422	0.673	0.376	0.559	0.539	0.583	0.551	0.415	0.438	0.427	0.623	0.793	0.464
SLEKSYKLPDG [ACTA1_Y242_E243K]	0.469	0.592	0.889	0.467	0.397	0.462	0.41	0.649	0.434	0.658	0.408	0.429	0.455	0.757	0.393	0.574
DRPASYLEKVR [KRT13_Y118_L115P]	0.579	1.03	1.08	0.3	0.299	0.342	0.362	0.43	0.247	0.438	0.307	0.276	0.404	0.605	0.284	0.441
NNRVFYGNSDC [RS1_Y177_R182C]	0.613	0.811	1.16	0.467	0.434	0.369	0.381	0.862	0.486	0.954	0.489	0.432	0.62	0.863	0.429	0.742
DEEPPYRGPFC [SASH1_Y551]	0.657	1.21	1.06	0.525	0.437	0.332	0.493	0.697	0.396	0.863	0.509	0.434	0.656	0.895	0.389	0.673
DVELLYPVKEK [EPHX1_Y283]	0.42	0.487	0.73	0.394	0.404	0.36	0.452	0.971	0.513	0.968	0.445	0.432	0.558	1.05	0.422	0.648
VKPENYWRLDI [VHL_Y175_R176W]	0.586	0.876	0.902	0.783	0.381	0.588	0.377	1.39	0.61	1.13	0.814	0.441	0.895	1.15	0.443	0.839
SRLSAYPALEG [CD5_Y465_H461R]	0.437	0.69	0.899	0.486	0.425	0.496	0.533	0.674	0.495	0.723	0.348	0.391	0.469	0.803	0.436	0.471
LESTLYESSVV [TRPV4_Y91]	0.448	0.861	0.708	1.31	1.26	1.21	1.83	2.15	1.35	1.94	1.41	9.02	1.47	2.34	1.6	1.45

Sequence	SH2 binding enrichment [1]	SH2 binding enrichment [2]	SH2 binding enrichment [3]	phosphorylation enrichment [4]	phosphorylation enrichment [5]	phosphorylation enrichment [6]	phosphorylation enrichment [7]	phosphorylation enrichment [8]	phosphorylation enrichment [9]	phosphorylation enrichment [10]	phosphorylation enrichment [11]	phosphorylation enrichment [12]	phosphorylation enrichment [13]	phosphorylation enrichment [14]	phosphorylation enrichment [15]	phosphorylation enrichment [16]
SEDANYKRVSC [TTC3_Y1288]	0.594	0.646	1.15	0.418	0.612	0.449	0.442	1.06	0.55	0.886	0.558	0.491	0.696	1.02	0.532	0.82
QTEGEYSSLEH [IDH3B_Y171]	0.721	0.634	0.71	0.995	0.886	0.556	1.26	1.64	1.01	1.79	0.91	0.836	0.874	1.82	1.04	1.94
AKGMKYVASKK [MET_Y1194_L1195V]	0.78	0.763	0.969	0.415	0.339	0.349	0.381	0.5	0.276	0.451	0.301	0.322	0.356	0.548	0.425	0.451
METKGYHSLPE [NR3C2_Y6]	0.769	0.475	0.786	0.434	0.287	0.515	0.446	0.804	0.367	0.696	0.48	0.399	0.563	1.01	0.377	0.704
ASPKSYPSQKH [CAP2_Y316_T311A]	0.385	0.638	0.635	0.356	0.374	0.356	0.366	0.464	0.276	0.426	0.358	0.323	0.406	0.511	0.333	0.484
AFLGEYIPTVF [RAC2_Y32_P29L]	0.658	1.01	0.922	0.826	0.593	0.638	0.664	1.49	0.499	1.31	0.733	0.568	0.967	1.43	0.516	1.1
QNAGDYFDLFG [PTPN11_Y62_T59A_YF]	0.505	0.733	0.997	25.5	0.516	1.71	1.2	13.4	16.2	6.62	21.9	0.681	24.5	1.57	1.02	1.44
DVFLKYLNFAT [PDE6B_Y212]	0.935	1.5	1.82	0.535	0.557	0.647	0.597	1.56	0.44	1.23	0.855	0.509	0.826	1.29	0.544	1.46
ADKSAYLMGVN [MYH7_Y386_L390V]	0.32	0.594	0.786	0.399	0.405	0.338	0.41	0.58	0.466	0.574	0.418	0.396	0.466	0.661	0.401	0.572
TSFSGYRCHRH [NKAPL_Y94_Y96C_YF]	0.661	0.901	1.01	0.552	0.419	0.469	0.414	0.718	0.486	0.703	0.576	0.464	0.45	0.727	0.469	0.562
GIVEEYQLPYY [BMPR1A_Y453]	4.36	0.997	0.862	1.06	0.647	0.567	3.47	1.29	0.642	3	0.611	0.66	0.946	1.06	0.63	1.16
VKYGAYINDFK [GLB1_Y488_N484K]	2.57	1.06	7.46	0.363	0.568	0.381	0.566	0.573	0.46	0.691	0.455	0.353	0.463	0.791	0.379	0.605
FDDIACIRKTL [PIK3CA_Y1021_Y1021C]	0.51	0.471	0.668	0.497	0.374	0.386	0.378	0.787	0.629	0.911	0.603	0.424	0.756	1.03	0.448	0.661
DPEATYTTSGG [EPHA2_Y772]	0.435	0.528	0.671	0.502	0.523	0.418	0.789	1.09	0.57	1.22	0.533	0.502	0.754	1.19	0.591	0.943
KNDSNYVVKGN [KIT_Y823]	0.546	0.659	0.814	0.55	0.37	0.382	0.346	0.482	0.318	0.539	0.303	0.323	0.447	0.635	0.406	0.568
IRKDLYANNVL [ACTA2_Y296]	0.569	0.614	1.23	0.421	0.413	0.476	0.429	0.54	0.46	0.527	0.38	0.422	0.564	0.59	0.45	0.581
